Test results as given in article PMC10716779.

Target: Full-length rat neuronal nitric oxide synthase (nNOS) (rat) (UniProt P29476)
Sequence (P29476 whole entry): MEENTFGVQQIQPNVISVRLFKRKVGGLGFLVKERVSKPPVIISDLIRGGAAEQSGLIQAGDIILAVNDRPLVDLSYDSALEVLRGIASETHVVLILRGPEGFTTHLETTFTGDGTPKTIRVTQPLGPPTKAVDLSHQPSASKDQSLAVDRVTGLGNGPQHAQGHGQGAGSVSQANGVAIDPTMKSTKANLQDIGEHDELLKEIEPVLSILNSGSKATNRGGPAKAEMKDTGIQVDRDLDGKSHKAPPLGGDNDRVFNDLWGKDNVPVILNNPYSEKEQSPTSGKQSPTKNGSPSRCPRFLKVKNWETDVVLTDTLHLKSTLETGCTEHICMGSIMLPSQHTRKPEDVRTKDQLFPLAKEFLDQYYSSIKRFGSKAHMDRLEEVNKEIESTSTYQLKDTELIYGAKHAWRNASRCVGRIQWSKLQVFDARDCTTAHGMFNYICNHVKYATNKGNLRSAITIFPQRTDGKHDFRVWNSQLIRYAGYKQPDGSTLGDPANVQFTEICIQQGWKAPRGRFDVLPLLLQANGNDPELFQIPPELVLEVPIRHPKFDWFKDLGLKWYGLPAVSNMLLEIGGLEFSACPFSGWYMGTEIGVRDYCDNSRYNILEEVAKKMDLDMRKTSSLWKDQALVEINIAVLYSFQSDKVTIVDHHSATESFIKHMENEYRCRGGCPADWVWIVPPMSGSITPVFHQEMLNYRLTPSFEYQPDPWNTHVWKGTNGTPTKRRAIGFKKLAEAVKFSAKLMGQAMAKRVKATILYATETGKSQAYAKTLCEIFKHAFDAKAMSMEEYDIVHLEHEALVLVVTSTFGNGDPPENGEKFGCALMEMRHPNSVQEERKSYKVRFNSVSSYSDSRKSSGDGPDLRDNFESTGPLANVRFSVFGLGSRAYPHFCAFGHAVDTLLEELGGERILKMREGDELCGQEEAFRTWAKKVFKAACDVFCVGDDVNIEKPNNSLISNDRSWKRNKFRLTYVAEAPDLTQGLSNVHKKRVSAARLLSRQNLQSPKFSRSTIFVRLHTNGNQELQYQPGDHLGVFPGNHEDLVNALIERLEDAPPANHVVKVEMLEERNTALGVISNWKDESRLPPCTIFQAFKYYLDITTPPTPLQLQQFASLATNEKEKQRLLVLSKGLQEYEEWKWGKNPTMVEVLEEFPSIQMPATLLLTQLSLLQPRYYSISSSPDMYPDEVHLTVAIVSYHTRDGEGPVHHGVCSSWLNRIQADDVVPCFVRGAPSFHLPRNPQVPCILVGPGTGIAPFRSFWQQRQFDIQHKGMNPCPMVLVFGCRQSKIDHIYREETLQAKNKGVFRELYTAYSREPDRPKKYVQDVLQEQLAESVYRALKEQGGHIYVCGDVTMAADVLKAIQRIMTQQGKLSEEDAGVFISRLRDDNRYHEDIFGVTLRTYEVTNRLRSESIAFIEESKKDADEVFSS

nNOS activity (NO synthesis, oxyhemoglobin assay) of 2.0 μM nNOS against increasing CaM concentration; CaM concentration at maximal activation: 2.4 µM
Substance: Human calmodulin (CaM), N-terminal His6-TEV tag removed (from UniProt P0DP23 1-149) (natural protein)
